B1: P97290 (protein, UniProt P97290 1-504, looked up)
chain: MASRLTPLTLLLLLLAGDRAFSDPEATSHSTQDPLEAQAKSRESFPERDDSWSPPEPTVLPSTWPTTSVAITITNDTMGKVANESFSQHSQPAAQLPTDSPGQPPLNSSSQPSTASDLPTQATTEPFCPEPLAQCSDSDRDSSEAKLSEALTDFSVKLYHAFSATKMAKTNMAFSPFSIASLLTQVLLGAGDSTKSNLESILSYPKDFACVHQALKGFSSKGVTSVSQIFHSPDLAIRDTYVNASQSLYGSSPRVLGPDSAANLELINTWVAENTNHKIRKLLDSLPSDTCLVLLNAVYLSAKWKITFEPKKMMAPFFYKNSMIKVPMMSSVKYPVAQFDDHTLKAKVGQLQLSHNLSFVIVVPVFPKHQLKDVEKALNPTVFKAIMKKLELSKFLPTYLTMPHIKVKSSQDMLSVMEKLEFFDFTYDLNLCGLTEDPDLQVSAMKHETVLELTESGVEAAAASAISFGRSLPIFEVQRPFLFLLWDQQHRFPVFMGRVYDPRG
modifications: full-length
B2: P97314 (protein, UniProt P97314 1-193, looked up)
chain: MPVWGGGNKCGACGRTVYHAEEVQCDGRSFHRCCFLCMVCRKNLDSTTVAIHDEEIYCKSCYGKKYGPKGYGYGQGAGTLNMDRGERLGIKPESAQPHRPTTNPNTSKFAQKYGGAEKCSRCGDSVYAAEKIIGAGKPWHKNCFRCAKCGKSLESTTLTEKEGEIYCKGCYAKNFGPKGFGYGQGAGALVHAQ
modifications: full-length
B3: Q08652 (protein, UniProt Q08652 1-134, looked up)
chain: MTKDQNGTWEMESNENFEGYMKALDIDFATRKIAVRLTQTKIITQDGDNFKTKTNSTFRNYDLDFTVGVEFDEHTKGLDGRHVKTLVTWEGNTLVCVQKGEKENRGWKQWVEGDKLYLELTCGDQVCRQVFKKK
modifications: full-length
B4: Q05186 (protein, UniProt Q05186 1-325, looked up)
chain: MARGGRLGLALGLLLALVLALRAKPTVRKERVVRPDSELGERPPEDNQSFQYDHEAFLGKEDSKTFDQLSPDESKERLGKIVDRIDSDGDGLVTTEELKLWIKRVQKRYIYDNVAKVWKDYDRDKDEKISWEEYKQATYGYYLGNPAEFHDSSDHHTFKKMLPRDERRFKASDLDGDLTATREEFTAFLHPEEFEHMKEIVVLETLEDIDKNGDGFVDQDEYIADMFSHEDNGPEPDWVLSEREQFNDFRDLNKDGKLDKDEIRHWILPQDYDHAQAEARHLVYESDKNKDEMLTKEEILDNWNMFVGSQATNYGEDLTKNHDEL
modifications: full-length
B5: P98063 (protein, UniProt P98063 1-991, looked up)
chain: MPGVARPPLPLLSLPLLLLLLLLPRAGRPLDLADYTYDLGEEDAPELLNYKDPCKAAAFLGDIALDEEDLRAFQVQQAAVLRQQTARRPSIKAAGNSSALGGQGTSGQPQRESRGRWRGRPRSRRAATSRPERVWPDGVIPFVIGGNFTGSQRAVFRQAMRHWEKHTCVTFLERTDEDSYIVFTYRPCGCCSYVGRRGGGPQAISIGKNCDKFGIVVHELGHVIGFWHEHTRPDRDRHVSIVRENIQPGQEYNFLKMEVQEVESLGETYDFDSIMHYARNTFSRGIFLDTIVPKYEVNGVKPSIGQRTRLSKGDIAQARKLYKCPACGETLQDSTGNFSSPEYPNGYSAHMHCVWRISVTPGEKIILNFTSMDLYRSRLCWYDYVEVRDGFWRKAPLRGRFCGGKLPEPIVSTDSRLWVEFRSSSNWVGKGFFAVYEAICGGDVKKDNGHIQSPNYPDDYRPSKVCIWRIQVSEGFHVGLTFQSFEIERHDSCAYDYLEVRDGHSESSNLIGRYCGYEKPDDIKSTSSRLWLKFVSDGSINKAGFAVNFFKEVDECSRPNRGGCEQRCLNTLGSYKCSCDPGYELAPDKRRCEAACGGFLTKLNGSITSPGWPKEYPPNKNCIWQLVAPTQYRISLQFDFFETEGNDVCKYDFVEVRSGLTADSKLHGKFCGSEKPEVITSQYNNMRVEFKSDNTVSKKGFKAHFFSDKDECSKDNGGCQQDCVNTFGSYECQCRSGFVLHDNKHDCKEAGCEHKVTSTSGTITSPNWPDKYPSKKECTWAISSTPGHRVKLTFVEMDIESQPECAYDHLEVFDGRDAKAPVLGRFCGSKKPEPVLATGNRMFLRFYSDNSVQRKGFQASHSTECGGQVRADVKTKDLYSHAQFGDNNYPGGVDCEWVIVAEEGYGVELVFQTFEVEEETDCGYDYIELFDGYDSTAPRLGRYCGSGPPEEVYSAGDSVLVKFHSDDTISKKGFHLRYTSTKFQDTLHSRK
modifications: full-length
B6: Q07797 (protein, UniProt Q07797 1-577, looked up)
chain: MALLWLLSVFLLVPGTQGTEDGDMRLVNGASANEGRVEIFYRGRWGTVCDNLWNLLDAHVVCRALGYENATQALGRAAFGPGKGPIMLDEVECTGTESSLASCRSLGWMVSRCGHEKDAGVVCSNDTTGLHILDLSGELSDALGQIFDSQQGCDLFIQVTGQGYEDLSLCAHTLILRTNPEAQALWQVVGSSVIMRVDAECMPVVRDFLRYFYSRRIEVSMSSVKCLHKLASAYGATELQDYCGRLFATLLPQDPTFHTPLDLYAYARATGDSMLEDLCVQFLAWNFEPLTQSESWSAVPTTLIQALLPKSELAVSSELDLLKAVDQWSTETIASHEDIERLVEQVRFPMMLPQELFELQFNLSLYQDHQALFQRKTMQALEFHTVPVEVLAKYKGLNLTEDTYKPRLYTSSTWSSLVMASTWRAQRYEYNRYNQLYTYGYGSVARYNSYQSFQTPQHPSFLFKDKQISWSATYLPTMQSCWNYGFSCTSNELPVLGLTTSSYSNPTIGYENRVLILCGGYSVVDVTSFEGSKAPIPTALDTNSSKTPSLFPCASGAFSSFRVVIRPFYLTNSTDMV
modifications: full-length
B7: Q03157 (protein, UniProt Q03157 1-654, looked up)
chain: MGPTSPAARGQGRRWRPPPLPLLLPLSLLLLRAQLAVGNLAVGSPSAAEAPGSAQVAGLCGRLTLHRDLRTGRWEPDPQRSRRCLLDPQRVLEYCRQMYPELHIARVEQAAQAIPMERWCGGTRSGRCAHPHHEVVPFHCLPGEFVSEALLVPEGCRFLHQERMDQCESSTRRHQEAQEACSSQGLILHGSGMLLPCGSDRFRGVEYVCCPPPATPNPSGMAAGDPSTRSWPLGGRAEGGEDEEEVESFPQPVDDYFVEPPQAEEEEEEEEERAPPPSSHTPVMVSRVTPTPRPTDGVDVYFGMPGEIGEHEGFLRAKMDLEERRMRQINEVMREWAMADSQSKNLPKADRQALNEHFQSILQTLEEQVSGERQRLVETHATRVIALINDQRRAALEGFLAALQGDPPQAERVLMALRRYLRAEQKEQRHTLRHYQHVAAVDPEKAQQMRFQVQTHLQVIEERMNQSLGLLDQNPHLAQELRPQIQELLLAEHLGPSELDASVPGSSSEDKGSLQPPESKDDPPVTLPKGSTDQESSSSGREKLTPLEQYEQKVNASAPRGFPFHSSDIQRDELAPSGTGVSREALSGLLIMGAGGGSLIVLSLLLLRKKKPYGTISHGVVEVDPMLTLEEQQLRELQRHGYENPTYRFLEERP
modifications: full-length
B8: P97449 (protein, UniProt P97449 1-966, looked up)
chain: MAKGFYISKTLGILGILLGVAAVCTIIALSVVYAQEKNRNAENSATAPTLPGSTSATTATTTPAVDESKPWNQYRLPKTLIPDSYRVILRPYLTPNNQGLYIFQGNSTVRFTCNQTTDVIIIHSKKLNYTLKGNHRVVLRTLDGTPAPNIDKTELVERTEYLVVHLQGSLVEGRQYEMDSQFQGELADDLAGFYRSEYMEGDVKKVVATTQMQAADARKSFPCFDEPAMKAMFNITLIYPNNLIALSNMLPKESKPYPEDPSCTMTEFHSTPKMSTYLLAYIVSEFKNISSVSANGVQIGIWARPSAIDEGQGDYALNVTGPILNFFAQHYNTSYPLPKSDQIALPDFNAGAMENWGLVTYRESSLVFDSQSSSISNKERVVTVIAHELAHQWFGNLVTVAWWNDLWLNEGFASYVEYLGADYAEPTWNLKDLMVLNDVYRVMAVDALASSHPLSSPADEIKTPDQIMELFDSITYSKGASVIRMLSSFLTEDLFKKGLSSYLHTYQYSNTVYLDLWEHLQKAVNQQTAVQPPATVRTIMDRWILQMGFPVITVNTNTGEISQKHFLLDSKSNVTRPSEFNYIWIAPIPFLKSGQEDHYWLDVEKNQSAKFQTSSNEWILLNINVTGYYLVNYDENNWKKLQNQLQTDLSVIPVINRAQIIHDSFNLASAKMIPITLALDNTLFLVKEAEYMPWQAALSSLNYFTLMFDRSEVYGPMKRYLKKQVTPLFFYFQNRTNNWVNRPPTLMEQYNEINAISTACSSGLKECRDLVVELYSQWMKNPNNNTIHPNLRSTVYCNAIAFGGEEEWNFAWEQFRNATLVNEADKLRSALACSKDVWILNRYLSYTLNPDYIRKQDTTSTIISIASNVAGHPLVWDFVRSNWKKLFENYGGGSFSFANLIQGVTRRFSSEFELQQLEQFKADNSATGFGTGTRALEQALEKTRANIDWVKENKDAVFKWFTENSS
modifications: full-length
B9: Q00623 (protein, UniProt Q00623 1-264, looked up)
chain: MKAVVLAVALVFLTGSQAWHVWQQDEPQSQWDKVKDFANVYVDAVKDSGRDYVSQFESSSLGQQLNLNLLENWDTLGSTVSQLQERLGPLTRDFWDNLEKETDWVRQEMNKDLEEVKQKVQPYLDEFQKKWKEDVELYRQKVAPLGAELQESARQKLQELQGRLSPVAEEFRDRMRTHVDSLRTQLAPHSEQMRESLAQRLAELKSNPTLNEYHTRAKTHLKTLGEKARPALEDLRHSLMPMLETLKTQVQSVIDKASETLTAQ
modifications: full-length

System: intracellular proteome of ENR+CD and ENR organoids
Assay: LC-MS/MS TMT proteomics of ENR+CD versus ENR organoids
Assay type: cell-based, C57BL/6 mice
Details: for Average logFC / M1-1 Log2 Median Normalized / M1-2 Log2 Median Normalized / M2-1 Log2 Median Normalized / M2-2 Log2 Median Normalized: protein abundance, ENR+CD versus ENR organoids; for Average logFC: aggregate of the four sample pairs; for M1-1 Log2 Median Normalized: replicate M1-1; for M1-1 Log2 Median Normalized / M1-2 Log2 Median Normalized / M2-1 Log2 Median Normalized / M2-2 Log2 Median Normalized: log2 ratio; for M1-2 Log2 Median Normalized: replicate M1-2; for M2-1 Log2 Median Normalized: replicate M2-1; for M2-2 Log2 Median Normalized: replicate M2-2; for change: up = enriched in ENR+CD, down = enriched in ENR, FDR<0.05 and log fold change cut-off

Molecule	Average logFC	M1-1 Log2 Median Normalized	M1-2 Log2 Median Normalized	M2-1 Log2 Median Normalized	M2-2 Log2 Median Normalized	change
B1	1.245	1.362	1.123	1.2185	1.278	up
B2	−1.204	−1.447	−1.021	−1.3045	−1.045	down
B3	−1.48	−1.364	−2.41	−1.7785	−0.366	down
B4	1.307	1.602	1.092	1.0235	1.511	up
B5	1.311	1.296	1.342	1.2215	1.383	up
B6	1.146	1.212	1.255	1.1065	1.011	up
B7	1.178	1.177	0.671	1.2695	1.559	up
B8	1.247	1.246	1.528	1.2875	0.807	up
B9	−2.027	−1.311	−2.229	−2.6175	−1.952	down

Source: patent publication US11994512B2, “Single-cell genomic methods to generate ex vivo cell systems that recapitulate in vivo biology with improved fidelity” (Massachusetts Institute of Technology, priority 2018, dated 2024)
